The values below come from article PMC9098913, “In vitro reconstitution of Escherichia coli divisome activation” (Nature Communications, 2022).

Data set [1] concerns FtsA self-interaction. The data set can be described thus: FRET (acceptor photobleaching) self-interaction of FtsA on supported lipid bilayers. Type of data set: binding, E. coli. The source says: To directly measure FtsA self-interaction in our fluorescence microscopy experiments, we established a FRET (Förster resonance energy transfer)-based assay using FtsA labelled with either Cy5 (acceptor) or Cy3 (donor). […] We then decided to use this approach to measure the degree of FtsA self-interaction on supported lipid membranes by quantifying the increase in donor fluorescence after photobleaching the acceptor fluorophore[30]–[32] (Fig. 3c–e and Fig. S3d). […] As a negative control, we also attached the Hexahistidine-SUMO-tag (His-SUMO) labelled with Cy5 and Cy3 to membranes with an increasing density of Tris-NTA lipids.
Equimolar concentrations of Cy3- and Cy5-labelled FtsA, supplemented with 20% unlabelled FtsA were used to study FRET and FRAP. Five pre-bleach frames were acquired, followed by acceptor photobleaching of a rectangular ROI with 40% 641 nm laser power and a dwell size of 1 µs/pixel, 75% overlapping lines. The recovery of the signal or the increase in donor intensity were measured with either two frames or one frame per second.
(§1) Bleaching the acceptor dye leads to an increase in the donor intensity, which can be used to quantify the Foerster Resonance energy transfer (FRET)[48]. FRET efficiency was quantified with E%=Ipost/Ipost+Ipre⋅100 , where Ipost is the intensity of the […] and Ipre is the […]. […] To extract the contribution of both processes, we adjusted a routine recently published by Gerganova et al.[33]. In short, the code provides the contribution of both modes of recovery by analysing the shape of the fluorescence recovery profile. […] Contribution of diffusion leads to a change of the slope of the outer borders of the bleached region (S4h right). Thus, by measuring the change of the slope of the border recovery, diffusion and simple on/off binding can be distinguished. We developed “FRAPdiff”, a graphical user interface, which uses the original fit routine by David Rutkowski. It can be used directly on.tiff movies with annotated bleach regions as ImageJ ROIs. In addition, we added optional bleach correction, user selectable projection axis (x or y), and optional mirroring of the recovery profiles, if bleaching was not symmetric. The original fit routine for estimating the recovery and diffusion dynamics can be found at https://github.com/davidmrutkowski/1DReflectingDiffusion. FRAPdiff is available at 10.5281/zenodo.6400639[49] under the GPLv3 open-source license.

The nature of data set [2]: Diffusion coefficient of His-tagged FtsAs and His-SUMO on Tris-NTA membranes (FRAP). The conditions noted are these: without FtsZ. How it is done: (§2) To study colocalization of His-tagged variants of FtsA, 0.5–1 µM of Cy5 labelled His-tagged FtsAs were added to the chamber, incubated for 20 min and washed 6x with reaction buffer. […] To control the density of membrane-bound FtsA, SUVs without and with Tris-NTA lipids were mixed to obtain the respective Tris-NTA concentrations. To perform FRET/FRAP experiments, equimolar concentrations of Cy3 and Cy5 labelled His-tagged FtsAs (total 0.5–1 µM) or His-SUMO-Cys were added to a chamber and treated as above. […] FRAP experiments were performed as described before.
as §1

Data set [3] deals with FtsA self-interaction. The data set can be described thus: FRET self-interaction of His-tagged FtsAs (and His-SUMO control) on Tris-NTA membranes. The data set is classed as binding, E. coli. The note with it: without FtsZ. As to the method: as §2, §1
Data set [4] deals with the molecule itself. The data set can be described thus: FRET or BRET; acceptor photobleaching; equimolar Cy3- and Cy5-labelled His-tagged protein (total 0.5-1 µM, washed) attached to bilayers with varied Tris-NTA lipid density. In general terms: Bioluminescence resonance energy transfer reports proximity on the nanometre scale.

Turning to `Nc1ncnc2c1ncn2[C@@H]1O[C@H](CO[P@](=O)(O)O[P@](=O)(O)O[P@@](=O)(O)S)[C@@H](O)[C@H]1O` [ATPγS, reference compound], in the data set on FtsA self-interaction [1], the “effect of replacing ATP with ATPγS on membrane-binding, self-interaction or membrane-binding dynamics” value is on record as “no significant effect”.

B1: His6-SUMO (protein, UniProt Q12306 2-98, looked up)
Ubiquitin-like protein SMT3: SDSEVNQEAKPEVKPEVKPETHINLKVSDGSSEIFFKIKKTTPLRRLMEAFAKRQGKEMDSLRFLYDGIRIQADQTPEDLDMEDNDIIEAHREQIGG
modifications: His6 tag
For the molecule B1, the “Diffusion Coefficient” value was 0.47 µm2/s in data set [2] (0.1% Tris NTA, replicate Exp1); 0.69 µm2/s in data set [2] (0.1% Tris NTA, replicate Exp2); 0.55 µm2/s in data set [2] (0.4% Tris NTA, replicate Exp1); 0.53 µm2/s in data set [2] (0.4% Tris NTA, replicate Exp2); 0.48 µm2/s in data set [2] (0.4% Tris NTA, replicate Exp3); 0.58 µm2/s in data set [2] (0.6% Tris NTA, replicate Exp1). Also, the “Diffusion Coefficient” value in data set [2] (0.6% Tris NTA, replicate Exp2) is 0.54 µm2/s; in data set [2] (0.6% Tris NTA, replicate Exp3) it was 0.58 µm2/s; in data set [2] (0.6% Tris NTA, replicate Exp4), 0.63 µm2/s; in data set [2] (0.8% Tris NTA, mean) it was 0.52 µm2/s; in data set [2] (0.8% Tris NTA, replicate Exp1), 0.56 µm2/s; in data set [2] (0.8% Tris NTA, replicate Exp2), 0.53 µm2/s. The “Diffusion Coefficient” value in data set [2] (0.8% Tris NTA, replicate Exp3) was 0.48 µm2/s; in data set [2] (0.8% Tris NTA, replicate Exp4) it was 0.52 µm2/s; in data set [2] (1% Tris NTA, mean) it was 0.57 µm2/s; in data set [2] (1% Tris NTA, replicate Exp1), 0.45 µm2/s; in data set [2] (1% Tris NTA, replicate Exp2), 0.57 µm2/s; in data set [2] (1% Tris NTA, replicate Exp3), 0.66 µm2/s. For the same molecule, the “Diffusion Coefficient” value in data set [2] (1% Tris NTA, replicate Exp4) was found to be 0.60 µm2/s; in data set [2] (1% Tris NTA, replicate Exp5), 0.57 µm2/s; in data set [2] (1% Tris NTA, replicate Exp6) it was 0.68 µm2/s; in data set [2] (1% Tris NTA, replicate Exp7), 0.62 µm2/s; in data set [2] (1% Tris NTA, replicate Exp8), 0.43 µm2/s; in data set [2] (Tris 0.10 %), 0.58 µm2/s. In addition, the Diffusion Coefficient in data set [2] (Tris 0.40 %) amounted to 0.52 µm2/s; in data set [2] (Tris 0.60 %) it was 0.58 µm2/s; in data set [2] (Tris 0.80 %), 0.52 µm2/s; in data set [2] (Tris 1.00 %), 0.57 µm2/s; in data set [2] (Tris 2.00 %), 0.58 µm2/s; in data set [2] (Tris […]), 0.56 µm2/s. Also, the “Diffusion Coefficient” value in data set [2] ([…] Tris NTA, mean (n: WT 2, R286W 3, SUMO 3)) worked out at 0.56 µm2/s; in data set [2] ([…] Tris NTA, replicate Exp1), 0.47 µm2/s; in data set [2] ([…] Tris NTA, replicate Exp2), 0.67 µm2/s; in data set [2] ([…] Tris NTA, replicate Exp3), 0.53 µm2/s. Also, the FRET efficiency with FtsA self-interaction [3] (0.1% Tris NTA, Exp1) was found to be 1.02%; with FtsA self-interaction [3] (0.1% Tris NTA, Exp2), 1.41%; with FtsA self-interaction [3] (0.1% Tris NTA, mean, n = 2) it was 1.21%; in the data set with FtsA self-interaction [3] (0.4% Tris NTA, Exp1) it was 1.31%; with FtsA self-interaction [3] (0.4% Tris NTA, Exp2), 1.55%; in the data set on FtsA self-interaction [3] (0.4% Tris NTA, Mean, n = 2), 1.43%. In addition, the FRET efficiency was 0.86% in the data set on FtsA self-interaction [3] (0.6% Tris NTA, Exp1); 0.95% in the data set on FtsA self-interaction [3] (0.6% Tris NTA, Exp2); 0.91% in the data set with FtsA self-interaction [3] (0.6% Tris NTA, Mean, n = 3 (His6-SUMO n = 2)); 0.27% with FtsA self-interaction [3] (0.8% Tris NTA, Exp1); 0.30% in the data set on FtsA self-interaction [3] (0.8% Tris NTA, Exp2); 0.29% in the data set with FtsA self-interaction [3] (0.8% Tris NTA, Mean, n = 3 (His6-SUMO n = 2)). In addition, the FRET efficiency in the data set with FtsA self-interaction [3] (1% Tris NTA, Exp1) is on record as 0.57%; in the data set with FtsA self-interaction [3] (1% Tris NTA, Exp2), 0.59%; in the data set on FtsA self-interaction [3] (1% Tris NTA, Exp3) it was 0.56%; in the data set on FtsA self-interaction [3] (1% Tris NTA, Mean, n = 3 (R286W-His6 n = 4)), 0.57%; in the data set on FtsA self-interaction [3] (2% Tris NTA, Exp1) it was 0.56%; in the data set on FtsA self-interaction [3] (2% Tris NTA, Exp2), 0.41%. Moreover, the FRET efficiency amounted to 0.49% with FtsA self-interaction [3] (2% Tris NTA, Mean, n = 2); 1.43% with FtsA self-interaction [3] (Tris 0.40 %, mean); 0.91% with FtsA self-interaction [3] (Tris 0.60 %, mean); 0.28% with FtsA self-interaction [3] (Tris 0.80 %, mean); 0.57% in the data set with FtsA self-interaction [3] (Tris 1.00 %, mean); 0.49% in the data set on FtsA self-interaction [3] (Tris 2.00 %, mean). The FRET efficiency with FtsA self-interaction [3] ([…] Tris NTA, Exp1) worked out at 1.47%; in the data set on FtsA self-interaction [3] ([…] Tris NTA, Exp2) it was 1.00%; in the data set on FtsA self-interaction [3] ([…] Tris NTA, mean, n = 2), 1.23%.

B2: FtsA WT (1-405)-6xHis (domain or fragment, E. coli, UniProt P0ABH0 1-405, looked up)
chain: MIKATDRKLVVGLEIGTAKVAALVGEVLPDGMVNIIGVGSCPSRGMDKGGVNDLESVVKCVQRAIDQAELMADCQISSVYLALSGKHISCQNEIGMVPISEEEVTQEDVENVVHTAKSVRVRDEHRVLHVIPQEYAIDYQEGIKNPVGLSGVRMQAKVHLITCHNDMAKNIVKAVERCGLKVDQLIFAGLASSYSVLTEDERELGVCVVDIGGGTMDIAVYTGGALRHTKVIPYAGNVVTSDIAYAFGTPPSDAEAIKVRHGCALGSIVGKDESVEVPSVGGRPPRSLQRQTLAEVIEPRYTELLNLVNEEILQLQEKLRQQGVKHHLAAGIVLTGGAAQIEGLAACAQRVFHTQVRIGAPLNITGLTDYAQEPYYSTAVGLLHYGKESHLNGEAEVEKRVTASV
modifications: Cy3 or Cy5 at the N-terminus in the labelled form (sortagging as for native FtsA)
notes: FtsA, E. coli, residues 1-405; plasmid pNB4; Attached to membranes through Tris-NTA lipids by its His tag; also called FtsA-His6; FtsA WT-His6; source: E. coli BL21, purified (as native FtsA); not shown: TwinStrep-SUMO, N-terminal, cleaved; 5xGlycine tag, N-terminal, kept; His6, C-terminal, kept
Regarding B2, the binding result in data set [4] is recorded as “binds”.
